Target: His-REV7 (human, UniProt Q9UI95 1-211)
Experiment: pull-down

His-REV7, sequence (Q9UI95 whole entry): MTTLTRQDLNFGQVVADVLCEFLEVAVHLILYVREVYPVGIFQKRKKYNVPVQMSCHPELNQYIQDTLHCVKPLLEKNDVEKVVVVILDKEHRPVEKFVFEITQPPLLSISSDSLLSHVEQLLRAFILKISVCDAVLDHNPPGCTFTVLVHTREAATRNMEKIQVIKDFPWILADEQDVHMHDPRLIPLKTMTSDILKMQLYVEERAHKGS

Row | Binder | binding result
1 | GST-ATRIP 203–348 (domain or fragment) RTKLQTSERANKLAAPSVSHVSPRKNPSVVIKPEACSPQFGKTSFPTKESFSANMSLPHPCQTESGYKPLVGREDSKPHSLRGDSIKQEEAQKSFVDSWRQRSNTQGSILINLLLKQPLIPGSSLSLCHLLSSSSESPAGTPLQPP | binds
2 | GST-ATRIP 203–307 (WT) (domain or fragment) RTKLQTSERANKLAAPSVSHVSPRKNPSVVIKPEACSPQFGKTSFPTKESFSANMSLPHPCQTESGYKPLVGREDSKPHSLRGDSIKQEEAQKSFVDSWRQRSNT | binds
